From patent US20240150440A1 (LUMEN BIOSCIENCE, published 2024)

B1: PP906 MBP-5HVZ-S1b-E7-H6 (VHH)
VHH: QVQLVESGGGLVQPGGSLRLSCAASGGEFSDNGLHWFRQAPGKQREFVATASSDGSTQYRDSVKGRFTISRDNAKNTVYLQMNSLKPEDTAVYYCTALLMSSAGEYDVWGQGTQVTVSS
notes: Form: Dimer
B2: PP931 MBP-5HVZ-R5a-F5-H6 (VHH)
VHH: QVQLVESGGGLVQPGGSLRLSCAASGYHASILAMHWVRQAPGKEREWVASMTWSDMTQYSDSVKGRFTISRDNAKNTVYLQMNSLKPEDTAVYYCAATYVTRDRPWTHWGQGTQVTVSS
notes: Form: Dimer
B3: PP1095 MBP-5HVZ-PAPA-RN-2-H6 (VHH)
VHH: QVQLVESGGGLVQPGGSLRLSCAASGSYFSKNAVHWYRQAPGKGREWVAALTNSGSGNYKDSVKGRFTISRDNAKNTVYLQMNSLKPEDTAVYYCTANISESTGQGYDYWGQGTQVTVSS
B4: PP1176 MBP-5HVZ-PAPA-R2a-F3-H6 (VHH)
VHH: QVQLVESGGGLVQPGGSLRLSCAASGSITSINWMHWFRQAPGKDREGVASISQTGRGSYADSVKGRFTISRDNAKNTVYLQMNSLKPEDTAVYYCAAASRTGTPYNYWGQGTQVTVSS
notes: Form: Dimer
B5: PP1109 MBP-5HVZ-PAPA-RN-25-H6 (VHH)
VHH: QVQLVESGGGLVQPGGSLRLSCAASGEDYSYNAAHWFRQAPGKEREWVAAINSGGGTYYADSVKGRFTISRDNAKNTVYLQMNSLKPEDTAVYYCAYLGALDRDGYDAWGQGTQVTVSS
notes: Form: Dimer
B6: PP933 MBP-5HVZ-R5e-C1-H6 (VHH)
VHH: QVQLVESGGGLVQPGGSLRLSCAASGSIPYVQAMSWFRQAPGKGREGVASIGWGGGTYYADSVKGRFTISRDNAKNTVYLQMNSLKPEDTAVYYCAAKFRENFSFYDYWGQGTQVTVSS
notes: Form: Dimer
B7: PP1104 MBP-5HVZ-PAPA-RN-19-H6 (VHH)
VHH: QVQLVESGGGLVQPGGSLRLSCAASGIDDSIGAMHWFRQAPGKGREFVAALSGTGTTSYADSVKGRFTISRDNAKNTVYLQMNSLKPEDTAVYYCAAAFPAGGDYWGQGTQVTVSS
notes: Form: Dimer
B8: PP1099 MBP-5HVZ-PAPA-RN-12-H6 (VHH)
VHH: QVQLVESGGGLVQPGGSLRLSCAASGSSFEGNAVHWFRQAPGKNREFVATITTSTSYYYADSVKGRFTISRDNAKNTVYLQMNSLKPEDTAVYYCAARLKDRGPQSEYDYWGQGTQVTVSS
notes: Form: Dimer
B9: PP909 MBP-5HVZ-S2b-A7-H6 (VHH)
VHH: QVQLVESGGGLVQPGGSLRLSCAASGSSDSWNALHWFRQAPGKEREFVAGISSAGSGYYADSVKGRFTISRDNAKNTVYLQMNSLKPEDTAVYYCNGYEHTTGYDYWGQGTQVTVSS
notes: Form: Dimer
B10: PP1110 MBP-5HVZ-PAPA-RN-26-H6 (VHH)
VHH: QVQLVESGGGLVQPGGSLRLSCAASGSISSINSMHWYRQAPGKEREWVAAVSSYGSDYYADSVKGRFTISRDNAKNTVYLQMNSLKPEDTAVYYCAARTVTGFTYGDYWGQGTQVTVSS
notes: Form: Dimer
B11: PP915 MBP-5HVZ-S3b-A7-H6 (VHH)
VHH: QVQLVESGGGLVQPGGSLRLSCAASGSIASINAIHWVRQAPGKQREEVAAITSGGSTGYADSVKGRFTISRDNAKNTVYLQMNSLKPEDTAVYYCAAQPGQSYAVWGQGTQVTVSS
notes: Form: Dimer
B12: PP1112 MBP-5HVZ-PAPA-RN-28-H6 (VHH)
VHH: QVQLVESGGGLVQPGGSLRLSCAASGSQFSHNLMSWFRQAPGKQREFVAAITSFGSTGYADSVKGRFTISRDNAKNTVYLQMNSLKPEDTAVYYCAALSSEDTSHYPRNYWGQGTQVTVSS
notes: Form: Dimer
B13: PP1105 MBP-5HVZ-PAPA-RN-20-H6 (VHH)
VHH: QVQLVESGGGLVQPGGSLRLSCAASGNYFEINKMHWFRQAPGKQREFVATIGSGGSTAYADSVKGRFTISRDNAKNTVYLQMNSLKPEDTAVYYCNALIYLADRRDGYYSYDYWGQGTQVTVSS
notes: Form: Dimer
B14: PP1145 MBP-5HVZ-PAPA-R2d-A6-H6 (VHH)
VHH: QVQLVESGGGLVQPGGSLRLSCAASGSGASIGAMHWFRQAPGKGREWVASITSAGNTYYGDSVKGRFTISRDNAKNTVYLQMNSLKPEDTAVYYCNALAGANYESQWEEYNYWGQGTQVTVSS
notes: Form: Dimer
B15: PP930 MBP-5HVZ-R2b-D4-H6 (VHH)
VHH: QVQLVESGGGLVQPGGSLRLSCAASGSYASIASMHWFRQAPGKQREFVAGLTSGGSRIYGDSVKGRFTISRDNAKNTVYLQMNSLKPEDTAVYYCTALILHYAGMYDYWGQGTQVTVSS
notes: Form: Dimer
B16: PP1098 MBP-5HVZ-PAPA-RN-9-H6 (VHH)
VHH: QVQLVESGGGLVQPGGSLRLSCAASGLRFAMTEMAWFRQAPGKQREFVALITEGGSGSYGDSVKGRFTISRDNAKNTVYLQMNSLKPEDTAVYYCAALHYTEGANTESATTFDYWGQGTQVTVSS
B17: PP1111 MBP-5HVZ-PAPA-RN-27-H6 (VHH)
VHH: QVQLVESGGGLVQPGGSLRLSCAASGPQFSSNAVSWFRQAPGKEREWVAGITSGGSTDYADSVKGRFTISRDNAKNTVYLQMNSLKPEDTAVYYCTAPSVSDADRRTRDYWGQGTQVTVSS
notes: Form: Dimer
B18: PP1154 MBP-5HVZ-PAPA-R5d-G1-H6 (VHH)
VHH: QVQLVESGGGLVQPGGSLRLSCAASGSIFGINDVHWFRQAPGKEREFVATITNGLSARYKDSVKGRFTISRDNAKNTVYLQMNSLKPEDTAVYYCAAQVYITTYELYDYWGQGTQVTVSS
notes: Form: Dimer
B19: PP1101 MBP-5HVZ-PAPA-RN-16-H6 (VHH)
VHH: QVQLVESGGGLVQPGGSLRLSCAASGADFSSNAMHWFRQAPGKAREFVASIDSDKSGYYADSVKGRFTISRDNAKNTVYLQMNSLKPEDTAVYYCNAYSGTDNYGYDYWGQGTQVTVSS
notes: Form: Dimer
B20: PP912 MBP-5HVZ-S2b-G8-H6 (VHH)
VHH: QVQLVESGGGLVQPGGSLRLSCAASGSIQSYEAMHWFRQAPGKAREWVAVITWGDSTQYGDSVKGRFTISRDNAKNTVYLQMNSLKPEDTAVYYCAADVRQGYSSWGQGTQVTVSS
notes: Form: Dimer
B21: PP1094 MBP-5HVZ-PAPA-RN-1-H6 (VHH)
VHH: QVQLVESGGGLVQPGGSLRLSCAASGYIFEGGPTAWFRQAPGKGREFVAAITTSGETSYAYSVKGRFTISRDNAKNTVYLQMNSLKPEDTAVYYCNATDRDETGYDYWGQGTQVTVSS
B22: PP927 MBP-5HVZ-R1i-C8-H6 (VHH)
VHH: QVQLVESGGGLVQPGGSLRLSCAASGRQFGAWRMHWYRQAPGKQREWVAGITSGTSGNYADSVKGRFTISRDNAKNTVYLQMNSLKPEDTAVYYCAATSHTTYHAEYWGQGTQVTVSS
notes: Form: Dimer
B23: PP1160 MPB-scTRP-PAPA-R5a-C5-H6 (VHH)
VHH: QVQLVESGGGLVQPGGSLRLSCAASGDIFSINALHWFRQAPGKQREEVAAITSGGSTGYADSVKGRFTISRDNAKNTVYLQMNSLKPEDTAVYYCAAQQARGGLDSDYWGQGTQVTVSS
notes: Form: Trimer

molecular target: T1, SARS-CoV-2 Alpha Variant RBD (SARS-CoV-2 Alpha variant); assay: ELISA, RBD coated
T1 construct: domain: RBD; coated on ELISA plates

Binder | EC50
B1 | 1.97 nM
B2 | 2.07 nM
B3 | 1.18 nM
B4 | 0.27 nM
B5 | 1.12 nM
B6 | 9.74 nM
B7 | 1.09 nM
B8 | 4.95 nM
B9 | 0.44 nM
B10 | 4.98 nM
B11 | 0.52 nM
B12 | 1.76 nM
B13 | 1.41 nM
B14 | 1.94 nM
B15 | 3.9 nM
B16 | 0.97 nM
B17 | 0.31 nM
B18 | 2.37 nM
B19 | 1.77 nM
B20 | 1.96 nM
B21 | 0.89 nM
B22 | 2.22 nM

molecular target: T2, SARS-CoV-2 Beta Variant RBD (SARS-CoV-2 Beta variant); assay: ELISA, RBD coated
T2 construct: domain: RBD; coated on ELISA plates

Binder | EC50
B1 | 988 nM
B2 | 134 nM
B3 | 193 nM
B5 | 17.1 nM
B6 | 10.2 nM
B7 | 44.9 nM
B8 | 194 nM
B9 | 8.1 nM
B10 | 17 nM
B12 | 4.77 nM
B13 | 26.6 nM
B14 | 30.9 nM
B15 | 13 nM
B16 | 24.8 nM
B17 | 1.57 nM
B18 | 24.7 nM
B19 | 115 nM
B20 | 365 nM
B21 | 315 nM

molecular target: T3, SARS-CoV-2 Gamma Variant RBD (SARS-CoV-2 Gamma variant); assay: ELISA, RBD coated
T3 construct: domain: RBD; coated on ELISA plates

Binder | EC50
B1 | 378 nM
B2 | 110 nM
B3 | 90.9 nM
B5 | 11 nM
B6 | 9.73 nM
B7 | 29.5 nM
B8 | 160 nM
B9 | 5.37 nM
B10 | 8.98 nM
B12 | 3.01 nM
B13 | 15.4 nM
B14 | 5.49 nM
B15 | 10.2 nM
B16 | 11.2 nM
B17 | 1.6 nM
B18 | 15.8 nM
B19 | 51.5 nM
B20 | 177 nM
B21 | 160 nM

molecular target: T4, SARS-CoV-2 Delta Variant RBD (SARS-CoV-2 Delta variant); assay: ELISA, RBD coated
T4 construct: domain: RBD; coated on ELISA plates

Binder | EC50
B1 | 205 nM
B2 | 127 nM
B3 | 16.9 nM
B4 | 2.67 nM
B5 | 115 nM
B6 | 8.87 nM
B7 | 295 nM
B9 | 81.4 nM
B10 | 407 nM
B11 | 37.8 nM
B12 | 15.1 nM
B13 | 36.6 nM
B14 | 89 nM
B15 | 21.1 nM
B17 | 231 nM
B18 | 221 nM
B19 | 42.6 nM
B20 | 622 nM
B21 | 49.9 nM
B22 | 94.2 nM

molecular target: T5, SARS-CoV-2 spike protein on pseudotyped lentivirus (Wuhan Reference Pseudovirus) (SARS-CoV-2, UniProt P0DTC2 14-1273); assay: cell-based or functional assay

Binder | infectivity % under 10 ug/mL VHH treatment
B1 | 69.6%
B2 | 57.5%
B23 | 4.22%
B3 | 76.8%
B4 | 58.4%
B5 | 88%
B7 | 73.8%
B8 | 70.6%
B10 | 57.9%
B11 | 90.5%
B12 | 70.4%
B13 | 79.8%
B14 | 65.2%
B15 | 35.6%
B16 | 58.3%
B17 | 68.3%
B18 | 53.2%
B19 | 91.8%
B20 | 73.2%
B21 | 83.4%
B22 | 45.4%

molecular target: T5, SARS-CoV-2 spike protein on pseudotyped …; assay: cell-based or functional assay; remark: another data set of the same source

Binder | Pseudovirus neutralization IC50
B23 | 2.41 nM
B14 | 146 nM
B18 | 272 nM
